Each block holds one molecule with its values, some of them ahead of it.
B3: GST-Ypt31p (natural protein, yeast (S. cerevisiae), UniProt P38555 1-223, looked up)
chain: MSSEDYGYDYDLLFKIVLIGDSGVGKSNLLSRFTKNEFNMDSKSTIGVEFATRTLEIDGKRIKAQIWDTAGQERYRAITSAYYRGAVGALIVYDISKSSSYENCNHWLSELRENADDNVAVGLIGNKSDLAHLRAVPTEESKTFAQENQLLFTETSALNSENVDKAFEELINTIYQKVSKHQMDLGDSSANGNANGASAPNGPTISLTPTPNENKKANGNNCC

How the values were obtained:
Irc6p = target: T1, Irc6p (Saccharomyces cerevisiae, UniProt P43615); assay: limited proteolysis; assay type: binding; settings: pH 8, 10 mM CaCl2, 24°C; indirect evidence
T1 sequence (P43615 1-237): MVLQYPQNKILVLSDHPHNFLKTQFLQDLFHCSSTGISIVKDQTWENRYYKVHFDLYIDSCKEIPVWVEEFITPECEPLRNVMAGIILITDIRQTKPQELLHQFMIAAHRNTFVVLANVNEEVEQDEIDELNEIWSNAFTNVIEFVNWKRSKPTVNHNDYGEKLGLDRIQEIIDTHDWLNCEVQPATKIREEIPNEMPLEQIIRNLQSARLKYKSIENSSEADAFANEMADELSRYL

GST-Ypt31p = target: B3; assay: pull-down
[1] = target: T2, FLAG-tagged Irc6p (recombinant, purified) (yeast (S. cerevisiae), UniProt P43615 1-237); assay: pull-down
T2 sequence (looked up): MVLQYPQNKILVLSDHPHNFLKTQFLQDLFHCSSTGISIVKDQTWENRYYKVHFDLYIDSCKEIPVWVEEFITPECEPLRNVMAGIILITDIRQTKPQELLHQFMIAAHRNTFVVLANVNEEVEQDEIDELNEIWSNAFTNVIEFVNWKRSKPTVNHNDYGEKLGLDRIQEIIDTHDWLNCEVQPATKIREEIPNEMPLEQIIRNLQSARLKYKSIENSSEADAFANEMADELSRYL

FLAG-Irc6p-K22A = target: T3, FLAG-Irc6p-K22A (yeast (S. cerevisiae), UniProt P43615 1-237, K22A); assay: pull-down
T3 sequence (looked up): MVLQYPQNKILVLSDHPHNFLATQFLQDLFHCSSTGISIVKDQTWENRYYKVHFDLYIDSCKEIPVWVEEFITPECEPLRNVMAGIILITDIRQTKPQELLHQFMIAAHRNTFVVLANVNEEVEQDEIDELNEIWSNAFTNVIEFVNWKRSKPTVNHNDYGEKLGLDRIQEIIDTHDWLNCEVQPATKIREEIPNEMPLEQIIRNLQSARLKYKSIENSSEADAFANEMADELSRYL

Molecule: Nc1nc2c(ncn2[C@@H]2O[C@H](COP(=O)(O)OP(=O)(O)NP(=O)(O)O)[C@@H](O)[C@H]2O)c(=O)[nH]1 [GMPPNP]
limited proteolysis (chymotrypsin), protection (Irc6p): by limited proteolysis was slowed in the presence of GMPPNP (Figure S2B)

binding result (GST-Ypt31p): binds
B1: FLAG-Irc6pΔC (Irc6p N-terminal region) (domain or fragment, yeast (S. cerevisiae), UniProt P43615 1-179, looked up)
chain: MVLQYPQNKILVLSDHPHNFLKTQFLQDLFHCSSTGISIVKDQTWENRYYKVHFDLYIDSCKEIPVWVEEFITPECEPLRNVMAGIILITDIRQTKPQELLHQFMIAAHRNTFVVLANVNEEVEQDEIDELNEIWSNAFTNVIEFVNWKRSKPTVNHNDYGEKLGLDRIQEIIDTHDWL

binding result (GST-Ypt31p): binds
B2: FLAG-Irc6pCT (Irc6p C-terminal region) (domain or fragment, yeast (S. cerevisiae), UniProt P43615 179-237, looked up)
chain: LNCEVQPATKIREEIPNEMPLEQIIRNLQSARLKYKSIENSSEADAFANEMADELSRYL

Molecule: B3
binding result [1]: binds
binding result (FLAG-Irc6p-K22A): binds

Reference: paper PMC3496615 (Molecular Biology of the Cell, 2012)
